# Laboratory results published in the nanobody polyreactivity screen of Harvey et al. (2022).
# Experiment: yeast display, Sf9 membrane polyspecificity reagent, FACS + sequencing; frameworks hold sequencing errors
# In short: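 Sorting gates, low and high (top ~1%), were placed on anti-HA fluorescence to track expression and on streptavidin fluorescence to track reagent binding. A clone's polyreactivity label is taken from the gate it came out of. The reagent was 10% biotinylated, detergent-solubilized Sf9 membrane, applied for 1 hour at 4 °C to galactose-induced yeast display cells.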
row,Sequence,polyreactivity (PSR sort gate)
1,QVQLVESGGGLVQAGGSLRLSCAASGIIFPSYAMGWYRQAPGKERELVAAISLSGGRTYYADSVKGRFTISRDNAKNTVYLQMYSLKPEDTAVYYCAAYPSTSYSKYGYYWGQGTLVTVSS,high polyreactivity
2,QVQLVESVGGLVQAGGSLRFTCAASGGTFRVNAMGWYRQAPGKEREFVAAISGSGSSTYYADSVKGRFTISRDNAKNTVYLQMNSLKPEDTAVYYCAARSGVGGDNDYWGQGTQVTVSS,low polyreactivity
3,QVQLVEAGGRLVQAAGSLRLSLAASAFNTTAMGWYRQAPGKDRELVAAITSDGDSTYYADSVKGRFTISRDNAQNTDYFQKNCVKPVDTAVYYCAADAVPTSVVYWGFYGMYWGQGTQVTVSS,low polyreactivity
4,QGQLVESGGGLVQAGGSLRLSCAASGRIFPAYGMAWYRQAPGQERELVATIDNGGGTYYADSVKGRFTISRDNAKNTVYLQMNSLKPEDTAVYYCARDRHVRWGLKMDFWGQGTQVTVSS,low polyreactivity
5,QVQLVESGGGLVQAGGSLRLSCAASGINFYDYAMGWYRQAPGKEREFVAAISWDGVSTYYADSVKGRFTISRDNAKNTVYLQMNSLKPEDTAVYYCAARAVTDDYYEFDYWGQGTQVTVSS,low polyreactivity
6,QVQLVESCGGLVHAGGSLRLSCAASGITLKWNDMGLYRQAPGKEREFVAAITGSTGSTFYADSVKGRFTISRDNAKNTVYLQMNSLKPEDTAVYYCAAGPWFYYWGQGTQVTVSS,low polyreactivity
7,QVQLVESGGGLVQAGGSLRLICAASGFTFYNYAKGWYRQAPGKERQLVAAISTSGGSTYYADSVKGRFTISRDNAKNTVYLQMNSLKPEDTAVYYCAAQATAYSYAYYYWGQGTQVTVSS,low polyreactivity
8,HVQLVESGGGLVQAGGSLRLSCAASGYIFYVYAMGWYRQAPGKERELVAAINSGDITSYADSVKGRFTISRDNAKNTVYFQMNSLKPEDTAVYYCATVLILIYDYWGQGTQVTVSS,low polyreactivity
9,QVQLVESGGGLVQEGGSHSLSCAASGRTFKYKAMGWSRPAPGKERELVASISGSGGRTYYADSVKGRFTISRDIAKNSVFLQMYRLNPEDTAVYFCNATRVKWLDWGQGTQVTVSS,high polyreactivity
10,QVQLVESGGRLVQAGGSLRLSCAASGSIFWYNSMGWYRQAPGKERELVAAISRRGGTTYADSVKGRFSISRDNAKYTVYLQLNSLKPEDTAVSYCGTTYTSRYYPYDYWGQGTQVTVSS,high polyreactivity
11,QVQLVESGGGIVQAGGSLRLSCAASGFIFGSYAMGWYRQAPGKERELVAAINSVDRTYYADSVKGRFTISRDNAKNTVYLQMNSLKPEDTAVYYCAATIAPTPGYIIYDYWGQGTQVTVSS,high polyreactivity
12,QVQLVESGGGLVQAGGSLRLSCAASGSTFRYYAMGWYRQAPGKERELVAAISRSGGRTYYADSVKGRFTISRDNAKNTVYLQMNSLKPEDTAVSYCATRGDGSSWGDHDYWGQGTQVTVSS,high polyreactivity
13,QVQLVESGGGLVQAGGSLRLSCAASGSTFTANAMGWYRQAPWKERELVASISAREGSTYADSVKGRFTISRDNANNTVYLQMNSLKPEDTAVYYCNAAYFHIFPYDYDYWGQCTQVTVSS,low polyreactivity
14,QVQLVESGGGLVQAGGSLRLSCAASGRIFIENAMGWYRQAPGKERELVAAISGSGGRTYYADSVKGRFTISRDNAKNTVYLQMNSLKPEDTAVYYCAAVLRTQPRRYDYWGQGTQVTVSS,high polyreactivity
15,QVQLVESGGGLVQAGGSLRLSCAASGLIFYIYMGWYRQAPGKERELVAVISSSGNSTYYADSVKGRFTISRDNEKNTVYLQMNSLKPEDTAVYYCNASAYYPPSSSRYDYWGQGTQVTVSS,low polyreactivity
16,QVQLVESGGGLVQAGGSLRLSCAASGITFHRYDMGWYRQAPGKERELVADITWSGGSTYYADSVKGRFTISRDNAKNTVYLQMNSLKPEDTSVYYCAADASTYTYTPYDYWGQGTQVTVSS,low polyreactivity
17,QVQLVESGGGLVQAGGILRLSCAASGSIFQYNAKGWYIQEPGKEREFVAAISGSGTTTYYADSVKGRFTISRDNAKNTVYLQMNSLKPEDTAVYYCAKAIRHYPDVAYNAWGQGSQVTVSS,high polyreactivity
18,QVQLVESGGGLVQAGGSLRLSCAASGSIFAGYAMGWYRQAPGKERELVAAISKSAGSTYYADSVKGRFTISRDNAKNTVYLQMNSLKAEDTAVYYCAARTFNTYPSYYYWGQGTQVTVSS,high polyreactivity
19,QVQLVESGGGLVQAGGSLRLSCAASGRTFGSNTMGWYRQAPGKERELVAAISGTGTSTYYADSVKGRFTISRDNAKNTVYLQMNSLKPEDTAVYYCAAGWYKYLFQPHDYWGQGTQVTVSS,low polyreactivity
20,QVQLVESGGGLVQAGGSLRLSCAASGSIFVANAMGWYRPAPGKERELVAAISSGGSTYYADSVKGRFTISRDNAKNTVYLQMNSLKPEDTAVYDCAAGQPNLVVGHYYWGQGTQVTVSS,low polyreactivity
21,QVQLVESGGGLVQAGGSLRLSCAASGRTFVVYAMGWYRQAPGKERELVAAINWSGTSTYYADSVKGRFTISRDNAKNTVYLQMNSLKPEDTAVYYCAAVAGLGTYRRYGYWGQGTQVTVSS,high polyreactivity
22,QVQLVESGGGLVQAGGSLRLTCAASGSIFSYNAKGRYRQAPGKERELVAGITTGDSTNYADSVKGRFTISRDNAKNTVYLQMNCLKPEDTAVYYCAATRLVSYHYPDLDSQQGGYWGQGTQVTVSS,low polyreactivity

row,Sequence,polyreactivity (PSR sort gate)
1,QVQLVESGGGLVQAGGSLRLSCAASGIIFPVYAMGWYRQAPGKERELVAAISSSGSSTYYADSVKGRFTISRDNAKNTVYLQMNSLKPEDTAVYYCAAVRYGLRRMDYWGQGTQVTVSS,high polyreactivity
2,QVQLVESGGGLVQAGGSLRLSCAASGRISQGYAMGWYRQAPGKERELVAGISRSGGSTYYADSVKGRFTISRDNAKNTVYLQMNSLKPEDTAVYYCAARVRGRNASDYDYYYWGQGSQVTVSS,high polyreactivity
3,QVQLVESGGGLVQAGGSLRLSWAASGFTFYRYAMGWYRQAPGKERELVAAITRSGSRTYYADSVKGRFTISRDNAKNTVYVQMNSLKPEDTAVYYCNTDGGDHPTARYGYWGQGTQVTVSS,high polyreactivity
4,QDQHVESVGGLVQAGGSLRLSIAASVLILWQNAMGWYRQAPGKERELVARITWSGVSTDYADSVKGRFTISRDNAKNTVYFQMNSLKPEDTADYYWAADYNRYSYNYARYSLGQNDYWGQGTQVTVSS,low polyreactivity
5,QVQLVESGGGLVQAGGSLRLSCPASGFIFYDYAMGWYRQAPGKERELVAAISSGGSTNYADSVKGRFTISRDNAKNTVYLQMNSLKPEDTAVYYCAADDRSYATWKRDYDYWGQGTQVTVSS,low polyreactivity
6,QVQLVESAGGLVQAGGSLRLSCAASGSTFPFYAMGWYRPAPGKERELVAAISASGVRTYYADSVKGRFTISRDNAKNTVYLQMNSLKPEDTAVDYCNRVYSTSRITQYEFDYWGQGTQVTVSS,low polyreactivity
7,QFQLVESGGGLVQAGGSLRLSCAASGSTFVFYAMGWYRQAPGKQRELVATISTGGSTYADSVKGRFTISRDNAKNTVYLQMNSLKPEDTAVYYCAADSLFGHYDYSGQGTQVTVSS,low polyreactivity
8,QVQLVESGGGLVQERGSLRLSCAASGSIFIPYARGWYRQAPGKERELVAAISLGDGKTYYADSVKGRFTISRDNAKNTVYLQMNSLKPEDTAVYYCNAVPRKFGDEYWGQGTQVTVSS,low polyreactivity
9,QVQLVESGAGLVQAGGRLRLSCAASGFIFTRYVMGWYRQAPGKERELVAAIRRGGSTYYADSVKGRFTISRDNAKNTVYLPMNSLKPEDTAVYYCAALYAYSLTARGMEYWGQGTQVTVSS,high polyreactivity
10,QVQLVESGGGLVQAGGSLRLSCAASGFTFVGNTMGWYRQAPGKERELVAAIRGRDGRTYYADSVKGRFTISRDNAKNTVYLQMNSLKPEDTAVFYCNAVGFVWYFDVYSYFTEIKYDYWGQGTQVTVSS,low polyreactivity
11,QVQLVESGGGLVQAGGSLRLSCAASGFIFPFYAMGWYRQAPGKERELVAVIRTSSDRTYYADSVKGRFTISRDNAKNTVYLQMNSLKPEDTAVYYCAAETYRLFDYLGQGTQVTVSS,low polyreactivity
12,RVQLQESGGGLVQAGGSLRLSCAASGTIFIRGDMGWYRQAPGKEREFVATIDTGSNTYYADSEKGRFTISRDNAKNAVYLQMNCQQPGDTAVYYCVVDYQLSGRLRYWGQGTQVTLSS,low polyreactivity
13,QVQLVESGGGLVQAGGSLRLSCAASGSTTYYAMGWYRQAPGKERELVAAISYSGGSTFYADSVKGRFRISRDNAKNTVYLQMNSLKPEDTAVYYCAADLGFPFDYWGQGTKVTVSS,low polyreactivity
14,QVQLVESGGGLVQAGGSLRLSSAASGNIFTYNAMGWYRPARGTERELVAAISSGGSTNYADSVKGRFTISRHNAKNTVYLQLNSLKPEDTAVYYCAADLTISYSQEYYYWGQGTQETVSS,low polyreactivity
15,QVQLVESGGGLVQAGGSLRLSCAASGSTFHRYAMGWSRQAPGKERELVATINLNTGSTYADSVKGRFTISRDNAKNTVYVQMNSLKPEDTAVYYCAAYGRWPFTWYNYWGQGTQVTVSS,low polyreactivity
16,QVQLVESGGGLVQAGGSLRLSCAASGFTFRRYAMGWYRQAPGKERELVAAITRGGSTYYADSVKGRFTISRDNAKNTVYLQMNSLKPEDTAVYYCAARGGTRYSTRSYGYWGQGTQVTVSS,high polyreactivity
17,QVQLVESGGGLVQAGGSLRLSCAASGRTLTGNAMGWYRQAPGKERELVAVISYSGTNTRYADSVKGRFTISRDNAKNTVYLQMNSLKPEDTAVYYCAARRPAPNYSSRYDYWGQGTQVTVSS,high polyreactivity
18,QDQLVESGGGLVQAGGSLRLSCAASGRTISGYVMGWYIQAPGKERELVATINGSGASTYYADSVKGRFTISRDNAKNTVYLQMNSLKPEDTAVYYCAAKRYRPKYEYYYWGQGTQVTVSS,high polyreactivity
19,QVQLVESGGGLVQAGGSLRLSCAASGFTFYTYAMGWYRQEPGKEREMVATISGSGGDTNYADSVKGRFTISRDNAKNTGYLQMDSLKPEDTAVYYCAAETQSVWSGFYYWGQGTQVTVSS,low polyreactivity
20,QVQLVESGGGLVQAGGSLRLSCAASGFTFSFNAMGWYRQAPGKERELVAAITTADSTYYADSVKGRFTISRDNAKNTVYLQMNSLKPEDTAVYYCAADSYYYGYQGQTQYGWVWYDYWGQGTQVTVSS,low polyreactivity
21,QVQLVESGGGLVQAGGSLRLSCAASGSTFSKYAMGWYRQAPGKERELVAGISRRVGSTYYADSVKGRFTISRDNAKNTVYFQMNSLKPEDTAVYYCNKVRGYPWQVVGYDYWGQGTQVTVSS,high polyreactivity
